Assay results: patent US20250367128A1, “BIODEGRADABLE LIPIDOIDS AND COMPOSITIONS AND METHODS OF USE THEREOF FOR LIVER TARGETED DELIVERY” (The Trustees of the University of Pennsylvania, priority 2022, published 2025)
Strand notation (5' to 3'): a small letter for the sugar, then the base; units joined by * are phosphorothioate-linked, units joined directly phosphodiester-linked; [ ] holds rarer units or linkages, { } end groups; capitals alone tell only the bases. [PACE] = phosphonoacetate internucleotide linkage; m = 2'-O-methyl; r = 2'-OH (RNA)

System: hPCSK9 exon 7
Test: In vitro validation of SpCas9 gRNA (plasmid transfection of cell line)
Format: cell-based, human
Details: data not shown
Excerpt: In this study, we perform pre-clinical gene editing studies using a PCSK9-hE7 mouse line having a humanized Pcsk9 gene. […] This allows for studies to use renucleic acids which can be directly translated to NHP or human. PCSK9 gene is a “safe harbor” for insertion of a gene therapy mini-gene. Previously, the SpCas9 gRNAs targeting hPCSK9 exon 7 was validated in vitro (plasmid transfection of cell line) with sgR1 yielded 32% indel formation (data not shown).

B1: sgR1: SpCas9 gRNA targeting hPCSK9 exon 7, SEQ ID NO: 1 (nucleic acid)
guide: mG*mA*mC*rCrArArCrUrUrUrGrGrCrCrGrCrUrGrUrGrGrUrUrUrUrArGrAmGmCmUmAmGmAmAmAmUmAmGmCrArArGrUrUrArArArArUrArArGrGrCrUrArGrUrCrCrGrUrUrArUrCrAmAmCmUmUmGmAmAmAmAmAmGmUmGmGmCmAmCmCmGmAmGmUmCmGmGmUmGmCmU[PACE]mU[PACE]mU[PACE]mU
- indel formation: 32%
